Experimental data from patent US20210238253A1 (GUANGDONG ZHAOTAI INVIVO BIOMEDICINE, published 2021).
Substitutions are numbered along the chain they refer to.

B1: 52F9 (hybridoma antibody) (antibody, V domains shown)
VH: QVQLVESGGGVVQAGRSLRLSCAASGFTFSNYGIHWVRQAPGKGLEWVGVIWHDGSIKNYADFVKGRFTISRDNSEDTLYLQMNSLRAEDTAVYYCAREQGNYYGWGSYKAFDIWGQGTMVTVSS
VL: DIQLTQSPSFLSVFVGDRVTITCRASQGISNYLAWYQQKPGKAPELLLYATSTLQSGVPSRLSGSGSGTEFTLTLSSLQPEDFATYYCQQVYSFPYTFGQGTKLEIK
notes: hybridoma mAb from H2L2 mouse (human variable, rat constant regions)
B2: 27F11 (hybridoma antibody) (antibody, V domains shown)
VH: QVQLVESGGGVVQPGRSLRLSCAASGFTFSRHGMHWVRQAPGKGLEWVAVIYYDGSNKYYVDSVKGRFTISRDNSKNTLDLQMNSLRAEDTAVYYCARRSITWNGAFDIWGQGTMVTVSS
VL: DIQMTQSPSTLSASVGDRVTISCRASQSISSWLAWYQQKPGKAPKLLIYKASSLESGVPSRFSGSGSGTEFTLTISSLQPDDFATYYCQQYNSAYTFGQGTKLEIK
notes: as for B1
B3: 17B6 (hybridoma antibody) (antibody, V domains shown)
VH: B2 VH with A23E, Y52F, N57Q, K58N, V61A, K65R, D80S, N84D, A106G, S120P
VL: B2 VL with S22T, T74A, S93R, A94F
notes: as for B1

Biological target: T1, hCD19-his (human CD19 recombinant protein, Pro20-Lys291, His tag at C-terminus) (human, UniProt P15391 20-291)
T1 construct: range 20-291; also called human CD19-His
T1 sequence (looked up): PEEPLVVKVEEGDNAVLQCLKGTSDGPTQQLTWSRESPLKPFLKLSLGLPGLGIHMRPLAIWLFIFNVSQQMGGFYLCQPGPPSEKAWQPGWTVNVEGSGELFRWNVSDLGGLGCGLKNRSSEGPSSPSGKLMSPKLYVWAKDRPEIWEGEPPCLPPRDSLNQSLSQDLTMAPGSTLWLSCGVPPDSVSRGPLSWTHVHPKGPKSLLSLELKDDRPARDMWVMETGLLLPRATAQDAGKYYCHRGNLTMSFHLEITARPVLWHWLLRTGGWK
Assay: ELISA, coated hCD19-His
Protocol: The antibodies were screened by ELISA according to Example 2. Briefly, […] of hCD19-His (ACRO) were spread and incubated. The purified antibodies were serially diluted to bind the incubated antigen. The binding signal of each antibody could be detected with HRP-labeled goat anti-rat Fc antibody.
Graphpad Prism software was used to calculate the fitting data.

Row | Binder | EC50
1 | B1 | 0.0592 µg/mL
2 | B2 | 0.0672 µg/mL
3 | B3 | 0.176 µg/mL

Biological target: T2, hVISTA-his (human, UniProt Q9H7M9 33-194)
T2 construct: Coated antigen of the specificity ELISA
T2 sequence (looked up): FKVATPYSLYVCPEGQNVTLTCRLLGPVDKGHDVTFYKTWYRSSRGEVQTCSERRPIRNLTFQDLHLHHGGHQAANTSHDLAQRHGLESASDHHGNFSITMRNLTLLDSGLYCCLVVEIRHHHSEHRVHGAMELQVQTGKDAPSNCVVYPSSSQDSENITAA
Assay: ELISA, coated antigen 0.5 µg/ml
Protocol: (§1) According to the method described in Example 4, 0.5 μg/ml of hCD19-His, hVISTA-his, hPD-L1, hCD40, h41BB and hLAG3 were spread and incubated respectively, and 2μg/ml of purified antibodies were added to bind the incubated antigen. The binding signal of each antibody could be detected with HRP-labeled goat anti-rat Fc antibody.

Row | Binder | binding result
4 | B1 | no binding (tested: 2 µg/ml)
5 | B2 | no binding (tested: 2 µg/ml)
6 | B3 | no binding (tested: 2 µg/ml)

Biological target: T3, hPD-L1 (human, UniProt Q9NZQ7 19-238, limits assumed)
T3 construct: Coated antigen of the specificity ELISA
T3 sequence (Q9NZQ7 19-238 limits assumed): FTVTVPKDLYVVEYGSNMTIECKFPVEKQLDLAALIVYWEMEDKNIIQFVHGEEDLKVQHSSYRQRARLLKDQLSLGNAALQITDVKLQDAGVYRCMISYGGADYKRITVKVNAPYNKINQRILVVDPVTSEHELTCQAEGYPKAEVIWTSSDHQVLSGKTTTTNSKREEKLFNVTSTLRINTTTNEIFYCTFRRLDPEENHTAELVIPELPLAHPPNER
Assay: ELISA, coated antigen 0.5 µg/ml
Protocol: as §1

Row | Binder | binding result
7 | B1 | no binding (tested: 2 µg/ml)
8 | B2 | no binding (tested: 2 µg/ml)
9 | B3 | no binding (tested: 2 µg/ml)

Biological target: T4, hCD40 (human, UniProt P25942 21-193)
T4 construct: Coated antigen of the specificity ELISA
T4 sequence (P25942 21-193 limits assumed): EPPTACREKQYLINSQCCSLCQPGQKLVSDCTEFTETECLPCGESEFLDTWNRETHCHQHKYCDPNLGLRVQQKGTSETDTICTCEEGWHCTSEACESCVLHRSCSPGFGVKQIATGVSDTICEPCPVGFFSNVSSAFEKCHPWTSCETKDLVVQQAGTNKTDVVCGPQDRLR
Assay: ELISA, coated antigen 0.5 µg/ml
Protocol: as §1

Row | Binder | binding result
10 | B1 | no binding (tested: 2 µg/ml)
11 | B2 | no binding (tested: 2 µg/ml)
12 | B3 | no binding (tested: 2 µg/ml)

Biological target: T5, h41BB (human, UniProt Q07011 24-186)
T5 construct: Coated antigen of the specificity ELISA
Assay: ELISA, coated antigen 0.5 µg/ml
Protocol: as §1

Row | Binder | binding result
13 | B1 | no binding (tested: 2 µg/ml)
14 | B2 | no binding (tested: 2 µg/ml)
15 | B3 | no binding (tested: 2 µg/ml)

Biological target: T6, hLAG3 (human, UniProt P18627 23-450, limits assumed)
T6 construct: Coated antigen of the specificity ELISA
T6 sequence (looked up): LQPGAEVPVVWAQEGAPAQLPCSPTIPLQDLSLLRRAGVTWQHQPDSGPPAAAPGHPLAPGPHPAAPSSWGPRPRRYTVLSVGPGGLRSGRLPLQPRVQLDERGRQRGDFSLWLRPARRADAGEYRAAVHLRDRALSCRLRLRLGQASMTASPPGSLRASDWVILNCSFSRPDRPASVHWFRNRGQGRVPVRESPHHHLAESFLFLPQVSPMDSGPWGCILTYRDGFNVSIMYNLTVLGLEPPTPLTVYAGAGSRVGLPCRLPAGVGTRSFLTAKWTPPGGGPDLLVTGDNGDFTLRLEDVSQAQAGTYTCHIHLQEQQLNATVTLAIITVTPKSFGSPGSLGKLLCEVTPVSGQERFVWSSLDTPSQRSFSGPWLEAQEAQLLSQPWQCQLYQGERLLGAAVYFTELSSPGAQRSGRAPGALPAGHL
Assay: ELISA, coated antigen 0.5 µg/ml
Protocol: as §1

Row | Binder | binding result
16 | B1 | no binding (tested: 2 µg/ml)
17 | B2 | no binding (tested: 2 µg/ml)
18 | B3 | no binding (tested: 2 µg/ml)

Biological target: T7, CD19 expressed by Nalm6 cells (UniProt P15391 20-556, limits assumed)
T7 construct: whole, on cells; Endogenous CD19 on tumor cell lines; also called Nalm6/GL; CD19 antigen on RAJI-GL and NALM6-GL tumor cells
T7 sequence (looked up): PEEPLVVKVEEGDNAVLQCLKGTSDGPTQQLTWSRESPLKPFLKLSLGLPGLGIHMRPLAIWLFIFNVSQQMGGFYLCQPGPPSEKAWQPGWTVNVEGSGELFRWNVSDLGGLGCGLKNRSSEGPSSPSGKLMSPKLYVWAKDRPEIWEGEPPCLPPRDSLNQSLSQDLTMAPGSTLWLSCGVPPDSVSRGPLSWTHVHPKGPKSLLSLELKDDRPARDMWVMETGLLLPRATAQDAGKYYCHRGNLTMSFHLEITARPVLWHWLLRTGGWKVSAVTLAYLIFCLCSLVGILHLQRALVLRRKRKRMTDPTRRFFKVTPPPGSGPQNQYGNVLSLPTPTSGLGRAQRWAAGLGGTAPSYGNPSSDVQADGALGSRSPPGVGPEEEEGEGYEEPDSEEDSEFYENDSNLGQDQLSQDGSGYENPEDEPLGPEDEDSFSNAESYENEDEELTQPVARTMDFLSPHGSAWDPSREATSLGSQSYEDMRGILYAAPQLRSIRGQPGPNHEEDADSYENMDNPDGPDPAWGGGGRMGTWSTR
Assay: flow cytometry on Nalm6 cells
Protocol: The CD19-expressing tumor cells Nalm6 in logarithmic growth phase were collected and resuspended in PBS at a cell density of 10⁵/well, 100 μl/well. The diluted CD19 antibodies were added into the well and incubated at 4° C. for 1 hour. The cells were washed three times with flow cytometry wash buffer. Anti-rat IgG-Alexa Fluor 647 (Abcam, Cat #ab150163) was added and incubated at 4° C. for 1 hour. The cells were washed three times with flow cytometry wash buffer. The samples were analyzed by flow cytometry. The results are shown in FIG. 3 and Table 4, as follows: […]

Row | Binder | Maximum mean fluorescence intensity (30 µg/ml)
19 | B1 | 5160
20 | B2 | 30000
21 | B3 | 25500

Biological target: T8, CD19 expressed by Nalm6 cells (UniProt P15391 20-556)
T8 chain: T7 sequence (looked up)
Assay: flow cytometry

Row | Binder | EC50
22 | B1 | 1.87 µg/mL
23 | B2 | 57.3 µg/mL
24 | B3 | 36.9 µg/mL
